Assays:
[1] = biological target: T1, PSMA胞外区蛋白 (重组表达的前列腺特异性膜抗原膜外区) (UniProt Q04609 44-750); test: indirect phage-ELISA, PSMA extracellular region coated at 5 μg/mL, HRP-anti-M13 detection
T1 construct: extracellular domain; also called PSMA蛋白; PSMA抗原; not shown: His tag from vector pRAG2a (purified by HisTrap, detected by anti-His antibody)

[2] = biological target: T2, 前列腺特异性膜抗原 (PSMA) on LNCaP cells (UniProt Q04609 1-750, limits assumed); test: cell ELISA on fixed LNCaP (PSMA+) against MKN45 (PSMA-) cells, HRP-anti-M13 detection
T2 construct: whole, on cells; Endogenous PSMA on LNCaP cells; MKN45 cells (no PSMA) served as negative cells; also called prostate specific membrane antigen
T2 sequence (Q04609 whole entry): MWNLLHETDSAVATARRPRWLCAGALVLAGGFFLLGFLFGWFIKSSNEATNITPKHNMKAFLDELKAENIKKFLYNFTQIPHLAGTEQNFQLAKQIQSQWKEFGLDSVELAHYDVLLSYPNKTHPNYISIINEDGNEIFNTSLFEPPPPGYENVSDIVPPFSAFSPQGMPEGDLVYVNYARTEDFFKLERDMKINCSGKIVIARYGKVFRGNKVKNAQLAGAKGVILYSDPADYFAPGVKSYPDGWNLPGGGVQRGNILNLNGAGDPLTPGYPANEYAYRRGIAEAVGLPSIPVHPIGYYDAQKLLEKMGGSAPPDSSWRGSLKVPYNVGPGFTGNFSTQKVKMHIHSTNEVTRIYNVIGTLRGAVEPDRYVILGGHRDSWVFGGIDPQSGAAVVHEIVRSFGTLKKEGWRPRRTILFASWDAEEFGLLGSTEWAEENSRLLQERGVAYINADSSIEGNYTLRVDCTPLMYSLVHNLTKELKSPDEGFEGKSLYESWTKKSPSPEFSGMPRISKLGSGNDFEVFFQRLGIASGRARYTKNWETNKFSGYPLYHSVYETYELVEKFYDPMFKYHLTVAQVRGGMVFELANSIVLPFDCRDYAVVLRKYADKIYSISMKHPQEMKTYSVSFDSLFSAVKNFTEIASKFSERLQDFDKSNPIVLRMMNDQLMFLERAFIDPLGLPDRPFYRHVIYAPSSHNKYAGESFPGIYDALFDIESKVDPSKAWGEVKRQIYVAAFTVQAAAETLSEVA

T1 sequence (Q04609 44-750): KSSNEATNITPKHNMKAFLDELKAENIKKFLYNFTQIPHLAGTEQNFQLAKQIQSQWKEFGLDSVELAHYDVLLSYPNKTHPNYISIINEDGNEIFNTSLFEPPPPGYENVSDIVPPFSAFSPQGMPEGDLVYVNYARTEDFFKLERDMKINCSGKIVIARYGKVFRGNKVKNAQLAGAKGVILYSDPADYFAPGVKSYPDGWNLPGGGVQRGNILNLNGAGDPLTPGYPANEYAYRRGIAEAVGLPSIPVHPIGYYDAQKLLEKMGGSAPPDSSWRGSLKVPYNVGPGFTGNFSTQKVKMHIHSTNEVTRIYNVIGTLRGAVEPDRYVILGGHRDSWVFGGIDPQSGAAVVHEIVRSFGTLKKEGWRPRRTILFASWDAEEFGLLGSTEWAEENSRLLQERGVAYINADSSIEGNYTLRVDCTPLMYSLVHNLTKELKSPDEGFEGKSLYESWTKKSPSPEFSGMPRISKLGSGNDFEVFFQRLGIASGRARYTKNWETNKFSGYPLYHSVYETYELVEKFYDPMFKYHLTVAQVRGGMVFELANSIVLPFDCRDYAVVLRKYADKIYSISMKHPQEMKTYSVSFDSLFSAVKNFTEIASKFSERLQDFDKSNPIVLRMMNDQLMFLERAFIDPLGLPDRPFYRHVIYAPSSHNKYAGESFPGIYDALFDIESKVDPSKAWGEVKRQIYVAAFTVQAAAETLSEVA

B1: 抗前列腺特异性膜抗原单域重链抗体噬菌体阳性克隆 (VHH)
VHH: QVQLVESGGGLVQAGGSLRLSCAASGRTFSRRDMGWFRQAPGKEREFVASISRSSAYTNYADSVKDRFTISRDNAKNTVYLQMYNLKPEDTAVYYCAAANYSTTRASAYRYWGQGTQVTVSS
notes: also called 针对前列腺特异性膜抗原的单域重链抗体阳性克隆; 展示本发明所述纳米抗体的噬菌体克隆; not shown: the phage coat protein fusion and any linker or tag are not described
B1: binds [1]; binds [2].

Source: patent CN105542009A (UNIV NANCHANG, dated 2016)
